The supplement of paper PMC9170038

System: MS2 coat protein
Assay: apparent KD of MS2 coat protein; designed switch direction (-1 OFF switch, 1 ON switch): -1; higher = weaker reporter binding
In short: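 RNA switches sharing common flanks were transcribed by stalled E. coli RNA polymerase on Illumina chips. A doubling series of SNAP-549-labelled MS2 coat protein, from 0.7 or 1.5 nM to 3 µM, was applied in Tris-HCl pH 7.5 buffer with KCl, MgCl2, BSA, DTT, tRNA and Tween-20. Each step lasted 0.8–1.5 h at the bottom of the series and 10–20 min at the top. Normalised cluster fluorescence was curve-fitted, giving apparent KD as the per-design median over clusters.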

[1] = input ligand: microRNA oligo, concentration not stated
[2] = Eterna round: R95, input ligand: microRNA oligo, concentration not stated
[3] = Eterna round: R95, input ligand: FMN 200 uM
[4] = Eterna round: R95, input ligand: none

Sequence | apparent KD of MS2 coat protein [2] | apparent KD of MS2 coat protein (input ligand: FMN 200 uM) | apparent KD of MS2 coat protein (input ligand: none) | further results
AUUAUAAAGUCAGGAUAUCGGUUUAUAAUAUUACGAGAAGGGACAUGAGGAUCACCCAUGUAUUAACACUACUAUGUCAACUAA [1st Attempt] (Eterna round: R96, puzzle: Exclusion NG 1) | – | – | – | apparent KD of MS2 coat protein [1]: 33.3 nM
UCGCUGCGAGGAUAUACGUUUGCGCGUUUUCGUUUGCGCGUACAUGAGGAUCACCCAUGUAGAAGGCGCGCGGC [Apr-15 SS2-11] (puzzle: Exclusion 2) | 12.2 nM | – | – | –
GAUCAUGCAGGAUAUACAUGGACCAUGAAAACAUGGUUUUCACAUGAGGAUCACCCAUGUAGAAGGGCAUGAUC [Omei Ex2 A8] (Eterna round: R97, puzzle: Exclusion 2) | – | 275 nM | 1400 nM | –
AUAAAUCAUGUAGGAUAUGCGUAGCGAAGCUAUGCAGAAGGACAUGAGGAUCACCCAUGUCUUUCCGUCUGCGAACAGACGGAA [Mat - Exclusion NG 1 - Mod of JL - D43] (Eterna round: R96, puzzle: Exclusion NG 1) | – | 199 nM | 31.6 nM | apparent KD of MS2 coat protein [1]: 20 nM
GAUCAACAUGAGGAUCACCCAUGUGAGGAUAUGAUACUAUGUACUUCGGUACAUAGUAUCAGAAGGCAUAUGAA [Ex1-3: 36] (puzzle: Exclusion 1) | 52 nM | – | – | –
UAAUUGAUUAAUAGAUUAUACAUGAGGAUCACCCAUGUAGAUCCUACGUGCCAUUUAAGUAGCUCGUCUUAUUAUUA [Sensor-V1 #65] (Eterna round: R97, puzzle: Sensor, turn-off variant 1) | – | 59.4 nM | 64.5 nM | –
GGCACACAUGAGGAUCACCCAUGUGAGGAUAUGUGGCGAUCGUCGAAAGACGAUAGCCACAGAAGGCACAGGCC [Eli x1 4.24] (Eterna round: R97, puzzle: Exclusion 1) | – | 21.4 nM | 17.8 nM | –
AAACCCUGAGGAUAUACAUAACAACAAAGCCUCACGUGCCAACAUGAGGAUCACCCAUGUAGAAGGCGGGCCAA [Mod R3 Insanara 14 - Jieux - Exclusion 2] (Eterna round: R97, puzzle: Exclusion 2) | – | 37.3 nM | 15.1 nM | –
CCUAUGUGAGGAUAUGUCUGGUCUUCUUUUAUUUUUUACAGACAGAAGGCACAUGAGGAUCACCCAUGUCAGAC [Ex4 - 3 - 48] (puzzle: Exclusion 4) | 23 nM | – | – | –
CGAGCUGGAGUGAGGAUAUCGUGUUCGAAAGAACGUGAGAAGGCACAUGAGGAUCACCCAUGUGAUUCAGCUCG [Omei Ex4B A4] (Eterna round: R97, puzzle: Brourd's mod of Exclusion 4) | – | 28 nM | 20.1 nM | –
GGUUGGCGAGGAUAUACAUGAGGAUCACCCAUGUGGUCCUGUAAAAAAAAAAACCUUUGUAGAAGGCGCGGGUC [salish99_ex3_r4_034] (Eterna round: R97, puzzle: Exclusion 3) | – | 211 nM | 233 nM | –
AAAUUAGCAAGUAGGUCCGACAUGAGGAUCACCCAUGUUAUCUGAAAUAACGCAGCAUGAUUGUGAGCUCGUCUUAG [Sensor-V1 #6] (Eterna round: R97, puzzle: Sensor, turn-off variant 1) | – | 80.8 nM | 105 nM | –
CAGGUGUUAGGAUAUCGGAGAUUGAGGCAGACGGGAAUAUUCGAGAAGGAACAUGAGGAUCACCCAUGUAGUAG [JR_Exclu4_Sub036] (puzzle: Exclusion 4) | 23.9 nM | – | – | –
AUAACAAGCUUUUUUUUCGUCGUAUAUGACGCUCGAGUCACAUGAGGAUCACCCAUGUCUUCCUGUUUGAUUGUUGA [JR_SV3TOV2_Sub057] (puzzle: Sensor v3, turn-off variant 2) | 154 nM | – | – | apparent KD of MS2 coat protein [3]: 167 nM; apparent KD of MS2 coat protein [4]: 173 nM
GCAGGAUAAGUGAGGAUAUACCUCUGGAUACAGAGGUAGAAGGCACAUGAGGAUCACCCAUGUUACUCACCUGC [Fiskers BMX 4 - 76] (puzzle: Brourd's mod of Exclusion 4) | 10.9 nM | – | – | –
CUGCUGGAGCUUUGCUUUAGUCGUACAUGAGGAUCACCCAUGUAGGAUAUGGUAGGCUUUGCUUACUAGAAGGAUAGAGUGGUC [salish99_ExNG3_r04_606] (Eterna round: R96, puzzle: Exclusion NG 3) | – | 226 nM | 62 nM | apparent KD of MS2 coat protein [1]: 66.6 nM
GAUCACUGAGGAUAUACACAGAUACAAAGUAUCUGAUAGUGACAUGAGGAUCACCCAUGUAGAAGGCAGAGGUC [Omei Ex2 B8] (Eterna round: R97, puzzle: Exclusion 2) | – | 433 nM | 72.2 nM | –

Sequence | apparent KD of MS2 coat protein [2] | apparent KD of MS2 coat protein (input ligand: FMN 200 uM) | apparent KD of MS2 coat protein (input ligand: none) | further results
UAGUUAAUCACAGGAUAUCGCCUCUUAUUACAUGAGGAUCACCCAUGUUUAGUUAGUUACAUGUUCGAGAAGGGUGUUGUAGUU [JR_ExcNG2_Sub042] (Eterna round: R96, puzzle: Exclusion NG 2) | – | 714 nM | 579 nM | apparent KD of MS2 coat protein [1]: 408 nM
AAGAGGUCAGGAUAUACGGGAAGAGAGAGAAGUAGAGGGUAACAUGAGGAUCACCCAUGUAGAAGGGACUAAGA [JR_Exclu2_Sub072] (puzzle: Exclusion 2) | 29.6 nM | – | – | apparent KD of MS2 coat protein [3]: 34.5 nM; apparent KD of MS2 coat protein [4]: 33.4 nM
GAUUAAUUAAUUAAUUAAUACAUGAGGAUCACCCAUGUAAUUUAAGAUCCUUAUACAAGCUUUGAUCUCGUCUUAUA [Stov1/5-A2] (Eterna round: R97, puzzle: Sensor, turn-off variant 1) | – | 163 nM | 159 nM | –
UCAUAACAUGAGGAUCACCCAUGUCAGGAUAUGAUACUAUGUACUUCGGUACAUAGUAUCAGAAGGGACAUGCU [Brourd's Ex1-3: 12 (nt 72 G)] (puzzle: Exclusion 1) | 135 nM | – | – | –
ACAUGAGGAUCACCCAUGUCCGGCUGGUCUGUUUCGGUUGUCGAGGAUAUAGUUCGGUGUUCGCGCUAGAAGGUGGGAGCUGGC [Aenatbe mod 57] (Eterna round: R96, puzzle: Exclusion NG 3) | – | 143 nM | 175 nM | apparent KD of MS2 coat protein [1]: 108 nM
AAUAGUAAUAAGGAUAUCACUAGCCUCGGCUAGUGAGAAGGUAUUACAUGAGGAUCACCCAUGUGGUCAAUUAA [E6/4-A2] (Eterna round: R97, puzzle: Exclusion 6) | – | 1110 nM | 1130 nM | –
AAGAGGUCAGGAUAUACGGAGAGAGGGAGUUGGUGAGGGUAACAUGAGGAUCACCCAUGUAGAAGGGACUAAGA [JR_Exclu2_Sub078] (puzzle: Exclusion 2) | 22.4 nM | – | – | –
CGCUGGUGAGGAUAUGGGUGUGGUUACAUGAGGAUCACCCAUGUGGUGUCGCAUGUGGGUCCAGAAGGCGCGGGUG [-25.2, -23.4 kcal, 17% A] (Eterna round: R97, puzzle: Exclusion 5) | – | 856 nM | 585 nM | –
GUUUGACAUGAGGAUCACCCAUGUAAGGAUAUACGAGUAGAUGAUAGAUAGAUAGUAAGUAGAAGGUACGUGUU [Translation] (Eterna round: R97, puzzle: Exclusion 1) | – | 70.6 nM | 105 nM | –
UUAAUUAGCUCGCUAGAUCCUCACAUGAGGAUCACCCAUGUGCAGGAUAUCAGCUCGUGUAGAGCUGAGAAGGGCACUGCGAGC [ExNG3/10-A3] (Eterna round: R96, puzzle: Exclusion NG 3) | – | 51.6 nM | 108 nM | apparent KD of MS2 coat protein [1]: 88.2 nM
UCACAAGCUGUGGGUGGUGACAUGAGGAUCACCCAUGUUUUGCUCGUCUUGUGCCGGGCCCGGCGCCCGGGCCCGGC [-42.1, -69.5, A 12%] (Eterna round: R97, puzzle: Sensor, turn-off variant 1) | – | 929 nM | – | –
ACAUGUCAUUGAGGAUAUCGCACACAUGAGGAUCACCCAUGUAAACGGAUGCUCUUUCGUGGUUUCGAGAAGGCGAUGUACAUU [Ex NG2 #97] (Eterna round: R96, puzzle: Exclusion NG 2) | – | 438 nM | 182 nM | apparent KD of MS2 coat protein [1]: 335 nM
CUCUUGUGAGGAUAUCAGGUGUGCUAGCGUACUGGUACAUCUGAGAAGGCACAUGAGGAUCACCCAUGUUUCAA [Mat - Exclusion 4 - Mod of JL - D41] (puzzle: Exclusion 4) | 52.5 nM | – | – | –
GUCUUACAUGAGGAUCACCCAUGUGAGGAUAUGGAUUCGCUGGCCGUAGCCAGUGGAUCCAGAAGGCGCGUGAU [JL-ex1-4.20] (Eterna round: R97, puzzle: Exclusion 1) | – | 67 nM | 62.5 nM | –
UGCCGAUGAGGAUAUACAUUGAAUAAGAUUCAUGUAAAACUACAUGAGGAUCACCCAUGUAGAAGGCAUUGGCU [Mat - Exclusion 2 - JL Mod - D69] (Eterna round: R97, puzzle: Exclusion 2) | – | 25.7 nM | 15.6 nM | –
AUGCGACAUGAGGAUCACCCAUGUGAGGAUAUUCGAAUGCACAAUUCGGUGUGAUAGAGGAGAAGGCGCAGGUA [EX1 #19] (Eterna round: R97, puzzle: Exclusion 1) | – | 154 nM | 243 nM | –
